In publication PMC10027511 (2023):

Key:
[1] = target: T1, Sos site 2 peptide site 2 peptide (Drosophila melanogaster, UniProt P26675); assay: 19F NMR lineshape analysis, 35 °C
T1 chain: GELSPPPIPPRL

[2] = target: T1, Sos site 2 peptide site 2 peptide; assay: 19F NMR lineshape analysis, 15 °C
[3] = target: T1, Sos site 2 peptide site 2 peptide; assay: 19F NMR lineshape analysis, 4.2 °C
[4] = target: T1, Sos site 2 peptide site 2 peptide; assay: 19F NMR lineshape analysis, 45 °C
[5] = target: T1, Sos site 2 peptide site 2 peptide; assay: 19F NMR lineshape analysis, 25 °C

B1: Drk N-terminal SH3 domain N-terminal SH3 (protein)
chain: MEAIAKHDFSATADDELSFRKGQILKILNMEDDSNWYRAELDGKEGLIPSNYIEMKNH
Kd [1]: 59 µM | Kd [2]: 17 µM | Kd [3]: 9 µM | Kd [4]: 110 µM | Kd [5]: 33 µM
